What was measured:
[1] = biological target: human mesothelin on the cell surface (A431/H9 transfectants and human cancer cell lines) (human) (UniProt Q13421); assay: cell-based or functional assay
[2] = biological target: rabbit IgG Fc-human mesothelin fusion protein (full-length extracellular domain, 296-581) (rabbit; human) (UniProt Q13421); assay: SPR (Biacore T100), […], kinetic titration
[3] = biological target: T1, rabbit IgG Fc-human mesothelin fusion protein (full-length extracellular domain, 296-581) (rabbit; human, UniProt Q13421 296-581); assay: SPR (Biacore T100), rFc-mesothelin injected over amine-coupled HN1 mAb, kinetic titration
T1 construct: also called rFc-mesothelin; human mesothelin-Fc; not shown: rabbit IgG Fc
T1 sequence (Q13421 other isoform, or with tags, fused parts or gaps limits assumed, form in doubt): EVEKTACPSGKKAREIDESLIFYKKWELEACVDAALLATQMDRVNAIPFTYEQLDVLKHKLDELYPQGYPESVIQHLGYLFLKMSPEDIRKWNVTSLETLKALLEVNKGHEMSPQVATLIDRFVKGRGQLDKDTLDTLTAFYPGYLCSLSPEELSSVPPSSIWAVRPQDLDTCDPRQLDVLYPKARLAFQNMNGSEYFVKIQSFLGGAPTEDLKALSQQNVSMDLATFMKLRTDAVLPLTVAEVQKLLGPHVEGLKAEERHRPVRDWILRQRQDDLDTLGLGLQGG

[4] = biological target: T1, rabbit IgG Fc-human mesothelin fusion …
[5] = biological target: human mesothelin (form not stated) (human, UniProt Q13421 296-581)
Chain of human mesothelin (form not stated) (Q13421 other isoform, or with tags, fused parts or gaps limits assumed): as the sequence (Q13421 other isoform, or with tags, fused parts or gaps limits assumed, form in doubt) above

[6] = biological target: T2, mouse mesothelin (form not stated) (mouse, UniProt Q61468 298-600)
T2 sequence (looked up): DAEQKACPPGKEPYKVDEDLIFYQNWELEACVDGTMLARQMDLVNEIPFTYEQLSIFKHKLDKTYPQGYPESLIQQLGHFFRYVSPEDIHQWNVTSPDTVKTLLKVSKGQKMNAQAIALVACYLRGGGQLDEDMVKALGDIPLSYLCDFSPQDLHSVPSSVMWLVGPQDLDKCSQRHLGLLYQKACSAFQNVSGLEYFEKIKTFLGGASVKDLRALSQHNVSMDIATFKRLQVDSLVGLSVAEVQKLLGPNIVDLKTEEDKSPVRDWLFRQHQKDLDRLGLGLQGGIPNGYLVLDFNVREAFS

Chain of human mesothelin on the cell surface (A431/H9 transfectants and human cancer cell lines) (human) (Q13421 other isoform, or with tags, fused parts or gaps limits assumed): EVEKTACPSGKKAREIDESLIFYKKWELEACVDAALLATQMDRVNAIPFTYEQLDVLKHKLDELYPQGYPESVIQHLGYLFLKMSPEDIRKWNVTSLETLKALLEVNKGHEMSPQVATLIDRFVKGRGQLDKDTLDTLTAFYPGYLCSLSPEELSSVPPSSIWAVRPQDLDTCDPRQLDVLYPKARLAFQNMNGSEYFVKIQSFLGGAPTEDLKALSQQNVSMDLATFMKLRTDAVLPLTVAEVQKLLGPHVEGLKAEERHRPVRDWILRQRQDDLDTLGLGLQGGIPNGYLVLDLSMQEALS
Chain of rabbit IgG Fc-human mesothelin fusion protein (full-length extracellular domain, 296-581) (rabbit; human) (Q13421 other isoform, or with tags, fused parts or gaps limits assumed, form in doubt): as the sequence (Q13421 other isoform, or with tags, fused parts or gaps limits assumed, form in doubt) above

HA22, an anti-CD22 scFv
Cytotoxic Assays (WST), IC50 of cell viability, H9 cells [1]: > 1000 ng/mL
Cytotoxic Assays (WST), IC50 of cell viability, H226 cells [1]: > 1000 ng/mL

HN1 scFv immunotoxin (HN1 scFv fused to truncated Pseudomonas exotoxin PE38) (from UniProt P11439 278-389; P11439 406-638)
Kd [2]: 100 nM
Cytotoxic Assays (WST), IC50 of cell viability, H226 cells [1]: 13 ng/mL

B1: HN1 fully human IgG (IgG gamma1 kappa) (antibody, V domains shown)
VH: QVQLVQSGAEVKRPGASVQVSCRASGYSINTYYMQWVRQAPGAGLEWMGVINPSGVTSYAQKFQGRVTLTNDTSTNTVYMQLNSLTSADTAVYYCARWALWGDFGMDVWGKGTLVTVSS
VL: DIQMTQSPSTLSASIGDRVTITCRASEGIYHWLAWYQQKPGKAPKLLIYKASSLASGAPSRFSGSGSGTDFTLTISSLQPDDFATYYCQQYSNYPLTFGGGTKLEIKR
notes: also called HN1 IgG; HN1 mAb
Kd [3]: 3 nM
fold better affinity than the scFv molecule [4]: > 30 fold

B2: HN1 antibody (form not stated) (antibody, V domains shown)
VH: QVQLVQSGAEVKRPGASVQVSCRASGYSINTYYMQWVRQAPGAGLEWMGVINPSGVTSYAQKFQGRVTLTNDTSTNTVYMQLNSLTSADTAVYYCARWALWGDFGMDVWGKGTLVTVSS
VL: DIQMTQSPSTLSASIGDRVTITCRASEGIYHWLAWYQQKPGKAPKLLIYKASSLASGAPSRFSGSGSGTDFTLTISSLQPDDFATYYCQQYSNYPLTFGGGTKLEIK
Kd [5]: ~7.5 nM

B3: HN2 antibody (form not stated) (antibody, V domains shown)
VH: EVQLLESGGGLVQPGGSLRPSCAASGFTFSSYAMSWVRQAPGKGLEWVSAISGSGGSTHYADSVKGRFTISRDNSKNTLYLQMNSLRAEDTAVYYCVRGGALGFDNWGRGTMVTVSS
VL: VLTQPPSVSEAPRQRVTISCSGSTSNIGSNVVNWYQQFPGKPPKVVIYYDDLVASGVSDRFSGSRSGTSASLAISGLQSEDEADYYCSAWDDSLNAWVFGGGTKVTV
Kd [5]: ~1.5 nM
Kd [6]: ~1.5 nM
